For experiment [1], the target named is K+ exchange antiporter 3 (KEA3), native KEA3.2 isoform (Arabidopsis thaliana (endogenous in Col-0)) (UniProt Q9M0Z3). The experiment can be described thus: native gel or EMSA; Blue Native PAGE of thylakoid membranes solubilized with 0.7% β-DM, blotted and detected with the antibody against the KEA3 C-terminus; native protein marker for size.
Experiment [2] concerns the target recombinant KEA3 C-terminus (Arabidopsis thaliana). The experiment can be described thus: SEC; Superdex 200 Increase 10/300 GL, calibrated with low and high molecular weight kits; Ni-NTA eluate treated with 2 mM EDTA to remove residual Ni2+ before the run. For orientation: Size exclusion chromatography separates by hydrodynamic size, large species first.
Experiment [3] shares this target. The experiment can be described thus: native gel or EMSA; native gel electrophoresis (without SDS) of the SEC fraction with the KEA3 C-terminus, in phosphate-buffered saline pH 8.

For the substance “K+ exchange antiporter 3 (KEA3), native KEA3.2 isoform (from UniProt Q9M0Z3-1 73-776) (natural protein)”, the stoichiometry N (usually a count of units in the complex or per binding partner) in experiment [1] was found to be 2.

In the case of “recombinant KEA3 C-terminus (domain or fragment)”, the stoichiometry N in experiment [2] and in experiment [3] was 2 each time.
